From US20240067734A1 (Hoffmann-La Roche, published 2024)
Substitutions are numbered along the chain they refer to. In names and notes the source's numbering stands.

T1: human NKG2D expressed on cells (human, UniProt P26718 1-216)
T1 construct: the cell type is named under assay; also called NKG2D on NK92 cells; HEK293T human NKG2D
T1 chain: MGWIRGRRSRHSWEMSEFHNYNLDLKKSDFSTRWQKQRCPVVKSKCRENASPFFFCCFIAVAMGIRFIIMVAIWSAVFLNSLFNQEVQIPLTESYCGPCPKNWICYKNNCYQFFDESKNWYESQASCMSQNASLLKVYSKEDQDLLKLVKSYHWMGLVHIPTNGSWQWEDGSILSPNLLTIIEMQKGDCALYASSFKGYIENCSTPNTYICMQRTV

T2: hu N(A2B2)A-avi-His (human)
T2 construct: Construct containing the A2 domain of human CEA, with avi and His tags; also called human CEA (A2 domain)
T2 chain: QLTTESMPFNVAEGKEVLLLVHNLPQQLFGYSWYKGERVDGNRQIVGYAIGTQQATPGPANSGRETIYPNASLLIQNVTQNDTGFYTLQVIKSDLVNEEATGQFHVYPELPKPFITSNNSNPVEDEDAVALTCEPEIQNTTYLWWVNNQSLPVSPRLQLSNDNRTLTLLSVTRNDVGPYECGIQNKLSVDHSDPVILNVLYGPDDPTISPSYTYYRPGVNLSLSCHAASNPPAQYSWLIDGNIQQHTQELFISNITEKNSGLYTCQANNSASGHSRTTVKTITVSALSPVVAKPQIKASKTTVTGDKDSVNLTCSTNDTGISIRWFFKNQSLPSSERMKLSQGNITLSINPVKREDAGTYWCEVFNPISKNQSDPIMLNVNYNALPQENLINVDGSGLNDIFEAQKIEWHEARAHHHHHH

T3: his avi huNKG2D ECD (human, biotinylated at the avi-tag (in the ELISA))
T3 construct: Human NKG2D ECD with N-terminal H6-avi tags, forms non-covalent dimers; also called recombinant human NKG2D
T3 chain: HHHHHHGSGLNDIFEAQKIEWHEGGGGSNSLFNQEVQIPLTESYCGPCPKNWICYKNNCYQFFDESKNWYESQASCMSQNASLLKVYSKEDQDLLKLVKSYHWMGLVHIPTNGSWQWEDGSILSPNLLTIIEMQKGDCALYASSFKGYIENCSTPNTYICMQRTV

B1: NKG2D×CEA bispecific antibody in M format, P1AE4972 (395 C50S, non-humanized) / huA5B7 (bispecific antibody, V domains shown)
VH 1: QEQLEQSGGGLVTPGGSLKLCCTASGFDFNTFWMTWVRQAPGKGLEWIGSIHGGSGSRDYASWVNGRFTLSRDIDQSTACLQVNSLTAADTAMYYCARPGYRSWSKTFDLWGQGTMVTVSS
VL 1: DIQMTQSPSSLSASVGDRVTITCRASQDISGALNWYQQKPGKAPNLLIYAASSLQSGVPSRFSGSGSGTDYTLTISSLQPEDFATYYCQQANSFPLTFGGGTKVEIK
VH 2: EVQLLESGGGLVQPGGSLRLSCAASGFTFTDYYMNWVRQAPGKGLEWLGFIGNKANAYTTEYSASVKGRFTISRDKSKNTLYLQMNSLRAEDTATYYCTRDRGLRFYFDYWGQGTTVTVSS
VL 2: EIVLTQSPATLSLSPGERATLSCRASSSVTYIHWYQQKPGQAPRSWIYATSNLASGIPARFSGSGSGTDFTLTISSLEPEDFAVYYCQHWSSKPPTFGQGTKLEIK
notes: also called non-humanized comparator
B2: NKG2D×CEA bispecific antibody in M format, P1AE4981 / huA5B7 (bispecific antibody, V domains shown)
VH 1: QEQLQESGPGLVKPSETLSLTCTVSGFDFNTFWMTWIRQPPGKGLEWIGSIHGGSGSRDYNPSLKSRVTISVDIDQNQFSLKLSSVTAADTAVYYCARPGYRSWSKTFDLWGQGTTVTVSS
VL 1: B1 VL 1
VH 2: B1 VH 2
VL 2: B1 VL 2
B3: NKG2D×CEA bispecific antibody in M format, P1AE4977 / huA5B7 (bispecific antibody, V domains shown)
VH 1: EVQLLESGGGLVQPGGSLRLSCAASGFDFNTFWMTWVRQAPGKGLEWVGSIHGGSGSRDYADSVKGRFTISRDIDQSTAYLQMNSLRAEDTAVYYCARPGYRSWSKTFDLWGQGTTVTVSS
VL 1: B1 VL 1
VH 2: B1 VH 2
VL 2: B1 VL 2
B4: NKG2D×CEA bispecific antibody in M format, P1AE4973 / huA5B7 (bispecific antibody, V domains shown)
VH 1: B3 VH 1 with I74N, D75S, Q76K, S77N, A79L
VL 1: B1 VL 1
VH 2: B1 VH 2
VL 2: B1 VL 2
B5: NKG2D×CEA bispecific antibody in M format, P1AE4978 / huA5B7 (bispecific antibody, V domains shown)
VH 1: B3 VH 1 with L5V, R72A
VL 1: B1 VL 1
VH 2: B1 VH 2
VL 2: B1 VL 2
B6: NKG2D×CEA bispecific antibody in M format, P1AE4975 / huA5B7 (bispecific antibody, V domains shown)
VH 1: B3 VH 1 with I74N, D75S, Q76K, S77N
VL 1: B1 VL 1
VH 2: B1 VH 2
VL 2: B1 VL 2
B7: NKG2D×CEA bispecific antibody in M format, P1AE4979 / huA5B7 (bispecific antibody, V domains shown)
VH 1: B3 VH 1 with E1Q, V2E
VL 1: B1 VL 1
VH 2: B1 VH 2
VL 2: B1 VL 2
B8: anti-NKG2D antibody clone 014 (antibody, V domains shown)
VH: EVQLLESGGGLVQPGGSLRLSCAASGFTFSSYAMSWVRQAPGKGLEWVSRISDGGGTIYYTDSVKGRFTIARDNSKNTLYLEMKSLRAEDTAVYYCAKHRLYDSIGAYAMDVWGQGTTVAVSS
VL: DIQMTQSPSSLSASVGDRVTITCRASQSISSYLNWYQQKPGKAPKLLIYDASNLETGVPSRFSGSGSGTDFTLTISSLQPEDFATYYCQQANSFPLTFGPGTKVDIK
notes: From transgenic rabbits
B9: anti-NKG2D clone 5C5 Fab (Fab, V domains shown)
VH: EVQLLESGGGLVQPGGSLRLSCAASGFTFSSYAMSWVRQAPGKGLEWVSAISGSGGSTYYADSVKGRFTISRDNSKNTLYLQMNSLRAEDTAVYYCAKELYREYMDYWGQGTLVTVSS
VL: SSELTQDPAVSVALGQTVRITCQGDSLRSYYASWYQQKPGQAPVLVIYGKNNRPSGIPDRFSGSSSGNTASLTITGAQAEDEADYYCNSRDSFSIHQNVFGGGTKLTVL
notes: Phage-display Fab purified from E. coli by IMAC (Flag-tagged)
B10: anti-NKG2D clone 13C6 Fab (Fab, V domains shown)
VH: EVQLVQSGAEVKKPGESLKISCKGSGYSFTSYWIGWVRQMPGKGLEWMGIIYPGDSDTRYSPSFQGQVTISADKSISTAYLQWSSLKASDTAMYYCARLYPVGVYFDYWGQGTLVTVSS
VL: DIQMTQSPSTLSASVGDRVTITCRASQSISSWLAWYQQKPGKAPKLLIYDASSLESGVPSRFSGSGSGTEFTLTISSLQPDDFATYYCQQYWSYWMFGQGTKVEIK
notes: as for B9

Molecular target: T1, human NKG2D expressed on cells
Assay: flow cytometry; NK92 cells

Going from B1 to B2, the EC50 rises from 8.47 nM to 68.2 nM (8.1-fold).

B3 and B4 are within 1.5-fold of each other in EC50: 19.6 nM for the first, 17.6 nM for the second.

Compared with B5, B6 is 2.4-fold lower in EC50: 35.5 nM for the first, 14.9 nM for the second. The second is the more potent here.

With B7 the EC50 was 13.1 nM.

Molecular target: T2, hu N(A2B2)A-avi-His
Assay: SPR Biacore T200; antigen captured via anti-His, bispecific analyte
Experimental: (§1) On a CM5 chip, an anti-penta-His capture antibody (Qiagen Penta-His Antibody, BSA-free; #34660) was immobilized by standard amine coupling on flow cells 2 and 3 at approximately 12′000 RU. […] Regeneration at the level of the anti-H6 tag capture antibody was achieved by 2 pulses of 10 mM glycine/HCl pH 2.0 for 60 s. Data were double-referenced against the unimmobilized flow cell 1 and a zero concentration of the analyte. The sensorgrams of the analytes were fitted to a simple 1:1 Langmuir interaction model.

B1 and B2 are within 1.5-fold of each other in Kd: 3.34 nM for the first, 3.23 nM for the second.

B3 and B4 are within 1.5-fold of each other in Kd: 3.77 nM for the first, 2.55 nM for the second.

B5 and B6 are within 1.5-fold of each other in Kd: 3.84 nM for the first, 3.66 nM for the second.

With B7 the Kd was 5.13 nM.

Molecular target: T3, his avi huNKG2D ECD
Assay: as above
Experimental: as §1

Going from B1 to B2, the Kd rises from 10.5 nM to 46.3 nM (4.4-fold). The first binds more tightly here.

Compared with B3, B4 is 1.6-fold lower in Kd: 22.9 nM for the first, 14.5 nM for the second.

Compared with B5, B6 is 2-fold lower in Kd: 37.4 nM for the first, 18.6 nM for the second.

In the case of B7, the Kd is reported as 17.2 nM.

These binders were tested against T4, di muNKG2D ECD Fc avi (murine, biotinylated at the avi-tag) (assay: ELISA; biotinylated antigen on streptavidin plate).
T4 construct: Dimeric fusion of murine NKG2D ECD to the C-terminus of an avi-tagged human IgG1 Fc; also called recombinant murine NKG2D
T4 sequence (chain, as listed by the source limits assumed): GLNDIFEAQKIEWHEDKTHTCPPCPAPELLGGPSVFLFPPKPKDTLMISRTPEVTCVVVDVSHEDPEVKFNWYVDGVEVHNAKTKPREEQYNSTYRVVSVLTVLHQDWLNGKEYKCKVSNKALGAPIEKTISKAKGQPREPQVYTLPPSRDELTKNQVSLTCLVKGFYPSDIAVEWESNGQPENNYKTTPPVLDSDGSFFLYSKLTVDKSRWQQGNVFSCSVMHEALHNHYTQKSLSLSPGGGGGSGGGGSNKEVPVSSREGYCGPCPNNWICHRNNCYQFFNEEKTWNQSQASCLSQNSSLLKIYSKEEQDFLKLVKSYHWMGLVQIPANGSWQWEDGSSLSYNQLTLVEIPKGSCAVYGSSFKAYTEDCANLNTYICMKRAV
Experimental: Nunc streptavidin coated plates (MicroCoat, #11974998001) were coated with 25 μl/well biotinylated his avi huNKG2D ECD (SEQ ID NO: 93) at a concentration of 0.5 μg/ml and incubated at room temperature (RT) for 1 hour. After washing with 3×90 μl/well PBST-buffer (10×PBS, Roche #11666789001+0.1% TWEEN® (polysorbate) 20), 25 μl anti-NKG2D antibodies were added in 1:3 dilutions starting at a concentration of 3 μg/ml or alternatively with a 1:30 dilution of the original sample and incubated 1 h at RT. After washing (3×90 μl/well PBST-buffer), 25 μl/well anti hu kappa chain HRP (horseradish peroxidase)-conjugate (Millipore, #AP502P, 1:2000) was added and incubated at RT for 1 h. After washing (3×90 μl/well PBST-buffer) 25 μl/well TMB (3,3′,5,5′-tetramethylbenzidine) substrate (Roche, #11835033001) was added.
Nunc streptavidin coated plates (MicroCoat, #11974998001) were coated with 25 μl/well biotinylated di muNKG2D ECD Fc avi (SEQ ID NO: 98) at a concentration of 1 μg/ml and incubated at room temperature (RT) for 1 hour. The assay was performed as described above for human NKG2D.

For B8, the OD max was 0.1 OD.

The binders below were run against T5, di huNKG2D ECD Fc avi (human, biotinylated at the avi-tag) (assay: SPR ProteOn; antigen on NLC chip, Fab analyte).
T5 construct: Dimeric fusion of human NKG2D ECD to the C-terminus of an avi-tagged human IgG1 Fc
Experimental: (§2) This incubation step was repeated once with 25 ml of a 5 mM MgSO₄ solution. The supernatants of both incubation steps were pooled, filtered and loaded on an IMAC column (His[…]™, GE Healthcare). Subsequently, the column was washed with 40 ml washing buffer (500 mM NaCl, 20 mM imidazole, 20 mM NaH2PO₄ pH 7.4). After the elution (500 mM NaCl, 500 mM imidazole, 20 mM NaH₂PO₄ pH 7.4) the eluate was re-buffered using PD10 columns (GE Healthcare).
(§3) Immobilization of recombinant antigens (ligand): Antigens were diluted with PBST (10 mM phosphate, 150 mM sodium chloride pH 7.4, 0.005% TWEEN® (polysorbate) 20) to 10 μg/ml, then injected at 30 μl/minute at varying contact times in vertical orientation for immobilization. […] Buffer (PBST) was injected along the sixth channel to provide an “in-line” blank for referencing. Association rate constants (kₒₙ) and dissociation rate constants (koff) were calculated using a simple one-to-one Langmuir binding model in PROTEON™ Manager v3.1 software by simultaneously fitting the association and dissociation sensorgrams. The equilibrium dissociation constant (KD) was calculated as the ratio koff/kₒₙ. Cross-reactivity of clones 5C5 and 13C6 to cynomolgus NKG2D, i.e. binding to di cyNKG2D ECD Fc avi, was assessed on IgG level (see Example 9).

Compared with B9, B10 is 3.4-fold higher in Kd: 22 nM for the first, 74 nM for the second. The first binds more tightly here.

Going from B9 to B10, the koff falls from 0.0056 s⁻¹ to 0.0007 s⁻¹ (8-fold).

Going from B9 to B10, the kon falls from 250000 M⁻¹ s⁻¹ to 9500 M⁻¹ s⁻¹ (26-fold).

What follows are binders tested against T6, mono huNKG2D ECD Fc kh avi (human, UniProt P0DOX5 223-449 = IgG part, biotinylated at the avi-tag) (assay: SPR ProteOn; antigen on NLC chip, Fab analyte).
T6 construct: Monovalent human NKG2D ECD fused to the C-terminus of an avi-tagged human IgG1 Fc knob chain, paired with an empty Fc hole chain
Experimental: as §2, §3

Compared with B9, B10 is 5.3-fold higher in Kd: 15 nM for the first, 79 nM for the second. The first binds more tightly here.

Compared with B9, B10 is 5.7-fold lower in koff: 0.0055 s⁻¹ for the first, 0.00096 s⁻¹ for the second.

Going from B9 to B10, the kon falls from 360000 M⁻¹ s⁻¹ to 12000 M⁻¹ s⁻¹ (30-fold).
